Here are results for 6 molecules from paper PMC4838878, “Super-complexes of adhesion GPCRs and neural guidance receptors” (Nature Communications, 2016).

Changes are numbered by the printed parent chain. Names may count otherwise. “And” between values parts separate entries of the source, which are not always exact repeats. Identical values can stand only once.

T1: FLRT2^LRR+Lphn3^Lec–Olf DDD mutant (mouse, UniProt Q8BLU0 35-362; Q80TS3-3 92-463, D397N | D399T, artificial N-linked glycan at position 397)
T1 construct: FLRT2, mouse, residues 35-362 (leucine-rich repeat domain); as m2; Latrophilin3, mouse, residues 92-463 with D397N+D399T; as m9
T1 sequence (looked up) 1: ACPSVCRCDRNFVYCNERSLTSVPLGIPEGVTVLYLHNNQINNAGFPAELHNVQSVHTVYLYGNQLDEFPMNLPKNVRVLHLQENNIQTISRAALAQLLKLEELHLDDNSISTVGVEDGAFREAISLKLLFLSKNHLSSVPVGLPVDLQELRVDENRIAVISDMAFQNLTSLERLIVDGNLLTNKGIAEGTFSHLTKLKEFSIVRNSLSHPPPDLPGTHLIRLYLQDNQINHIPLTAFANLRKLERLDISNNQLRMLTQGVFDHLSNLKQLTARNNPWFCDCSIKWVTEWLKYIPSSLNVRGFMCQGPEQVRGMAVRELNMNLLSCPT
T1 sequence (looked up) 2: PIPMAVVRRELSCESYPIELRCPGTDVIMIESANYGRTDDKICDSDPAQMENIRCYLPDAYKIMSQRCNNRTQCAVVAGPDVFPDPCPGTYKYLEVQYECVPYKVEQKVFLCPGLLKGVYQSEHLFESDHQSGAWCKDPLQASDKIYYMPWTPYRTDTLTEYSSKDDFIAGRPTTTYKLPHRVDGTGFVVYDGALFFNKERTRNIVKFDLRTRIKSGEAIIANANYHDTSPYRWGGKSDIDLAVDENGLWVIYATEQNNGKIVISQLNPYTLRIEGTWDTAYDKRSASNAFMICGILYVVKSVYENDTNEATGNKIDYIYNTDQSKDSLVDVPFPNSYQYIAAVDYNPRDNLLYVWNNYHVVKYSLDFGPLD

T2: FLRT2^LRR+Lphn3^Lec–Olf (mixed in a 1:2 molar ratio) (mouse, UniProt Q8BLU0 35-362; Q80TS3-3 92-463)
T2 construct: FLRT2, mouse, residues 35-362 (leucine-rich repeat domain); as m2; Latrophilin3, mouse, residues 92-463 (Lec and Olf domains); as m1; Analyte mixture of the SPR experiment; by SEC-MALS the two proteins alone form a 1:1 complex; also called FLRT2^LRR+wild-type Lphn3^Lec–Olf
T2 sequence (looked up) 1: T1 sequence (looked up) 1
T2 sequence (looked up) 2: T1 sequence (looked up) 2 with N306D, T308D

T3: Lphn3^Lec–Olf DDD mutant (D397N+D399T, artificial N-linked glycosylation site at position 397) (mouse, UniProt Q80TS3-3 92-463, D397N | D399T, artificial N-linked glycan at position 397)
T3 construct: Latrophilin3, mouse, residues 92-463 (Lec and Olf domains) with two substitutions in the DDD loop
T3 sequence (looked up): T1 sequence (looked up) 2

B1: rat Unc5D Ig domain 1 (Unc5D^Ig) (domain or fragment)
chain: not shown
notes: signal peptide in the construct; Unc5D, rat, residues 1-161 (Ig domain 1); Treated with endoglycosidase F1 before crystallisation
B2: rat Unc5D ectodomain (Unc5D^ecto), biotinylated at a C-terminal Avitag (domain or fragment)
chain: not shown
modifications: biotin on the C-terminal Avitag (enzymatic)
notes: signal peptide in the construct; Unc5D, rat, residues 1-382 (all extracellular domains); The form held on the streptavidin-coated CM5 chip in SPR; not shown: Avitag, C-terminal, kept
B3: mouse FLRT2 LRR domain (FLRT2^LRR) (domain or fragment, UniProt Q8BLU0 35-362, looked up)
chain: T1 sequence (looked up) 1
notes: FLRT2, mouse, residues 35-362 (leucine-rich repeat domain); pHLSec vector family; treated with endoglycosidase F1 before crystallisation
B4: mouse Latrophilin3 Lec+Olf (Lphn3^Lec–Olf) (domain or fragment, UniProt Q80TS3-3 92-463, looked up)
chain: T1 sequence (looked up) 2 with N306D, T308D
notes: Latrophilin3 (Lphn3, ADGRL3), mouse, residues 92-463 (lectin and olfactomedin-like domains); pHLSec vector family; treated with endoglycosidase F1 before crystallisation; Two copies (Lphn3A, Lphn3B) stand in each 1:1:2 tetramer; also called Lphn3A^Lec–Olf; Lphn3B^Lec–Olf
B5: Lphn3^Lec–Olf DDD charge-reversal mutant (D397R, D398R and D399R) (domain or fragment, mouse, UniProt Q80TS3-3 92-463, looked up)
chain: T1 sequence (looked up) 2 with N306R, D307R, T308R
notes: Latrophilin3, mouse, residues 92-463 (Lec and Olf domains) with three substitutions in the DDD loop
B6: rat Unc5D two Ig and TSP1 domains (Unc5D^IgIgTSP) (domain or fragment)
chain: not shown
notes: signal peptide in the construct; Unc5D, rat, residues 1-307 (Ig1, Ig2 and TSP1 domains); Deglycosylated before crystallisation

Data set [1] concerns the target B3. The data set is described as follows: crystal structure; Lphn3^Lec–Olf, FLRT2^LRR and Unc5D^Ig deglycosylated, mixed 1:1:1, SEC; crystals at 18 °C, 0.1 M sodium cacodylate pH 6.5; 6 Å (PDB 5ftu). As to conditions: both partners purified.
Data set [2] deals with T1, FLRT2^LRR+Lphn3^Lec–Olf DDD mutant. The data set is described as follows: SPR; Unc5D^ecto biotinylated at a C-terminal Avitag and coupled to a streptavidin-coated CM5 chip; FLRT2^LRR or FLRT2^LRR+Lphn3^Lec–Olf (1:2 molar ratio) injected; equilibrium binding, 25 °C, PBS+0.005% polysorbate 20 pH 7.5; apparent Kd, 1:1 and 1:(1:1) models, called indicative only. As to conditions: both partners purified.

Data set [3] addresses T2, FLRT2^LRR+Lphn3^Lec–Olf (mixed in a 1:2 …). The description is as above. As to conditions: both partners purified.
Data set [4] concerns the target T4, rat Unc5D ectodomain (Unc5D^ecto) (rat, UniProt F1LW30 31-382).
T4 construct: signal peptide in the construct; Unc5D, rat, residues 1-382 (all extracellular domains); The form used in native MS and SEC-MALS
Description: SEC-MALS; proteins mixed (Lphn3^Lec–Olf:FLRT:Unc5 2:1:1) and concentrated; Superdex 200 10/30, 10 mM Tris-HCl pH 7.5, 150 mM NaCl. As to conditions: both partners purified. In general terms: SEC sorts molecules by how far they enter the pores of the column.

Data set [5] concerns the target B4. The data set is described as follows: crystal structure; Lphn3^Lec–Olf, FLRT2^LRR and Unc5D^Ig deglycosylated, mixed 1:1:1, SEC; crystals at 18 °C, 0.1 M sodium cacodylate pH 6.5; 6 Å (PDB 5ftu). The following applies: both partners purified.
Data set [6] has as its target B5. Description: native MS; purified proteins mixed (FLRT2^LRR:Unc5D:Lphn3^Lec–Olf 1:1:2), 10–15 μM, 0.2 M ammonium acetate pH 7.5; Q-ToF; tandem MS of the tetramer peak at 150 V collision energy. As to conditions: both partners purified.
The target of data set [7] is T3, Lphn3^Lec–Olf DDD mutant (D397N+D399T, …). The description is as above. As to conditions: both partners purified.
Data set [8] has as its target B2. The data set is described as follows: SPR; Unc5D^ecto biotinylated at a C-terminal Avitag and coupled to a streptavidin-coated CM5 chip; FLRT2^LRR or FLRT2^LRR+Lphn3^Lec–Olf (1:2 molar ratio) injected; equilibrium binding, 25 °C, PBS+0.005% polysorbate 20 pH 7.5; apparent Kd, 1:1 and 1:(1:1) models, called indicative only. As to conditions: both partners purified. Background: In SPR one partner is held on a chip, and binding of the other changes the refractive index at the surface.

Data set [9] concerns the molecule itself. The data set is described as follows: crystal structure; Lphn3^Lec–Olf, FLRT2^LRR and Unc5D^Ig deglycosylated, mixed 1:1:1, SEC; crystals at 18 °C, 0.1 M sodium cacodylate pH 6.5; 6 Å (PDB 5ftu).
The target of data set [10] is B3. Description: native MS; purified proteins mixed (FLRT2^LRR:Unc5D:Lphn3^Lec–Olf 1:1:2), 10–15 μM, 0.2 M ammonium acetate pH 7.5; Q-ToF; tandem MS of the tetramer peak at 150 V collision energy. The following applies: both partners purified.
Data set [11] deals with the molecule itself. The data set is described as above.
Data set [12] concerns the target B3. The data set is described as follows: crystal structure; Lphn3^Lec–Olf, FLRT2^LRR and Unc5D^IgIgTsp deglycosylated, mixed 2:1:1; crystals at 18 °C; 3.4 Å (PDB 5ftt). As to conditions: both partners purified.

T4 sequence (F1LW30 31-382): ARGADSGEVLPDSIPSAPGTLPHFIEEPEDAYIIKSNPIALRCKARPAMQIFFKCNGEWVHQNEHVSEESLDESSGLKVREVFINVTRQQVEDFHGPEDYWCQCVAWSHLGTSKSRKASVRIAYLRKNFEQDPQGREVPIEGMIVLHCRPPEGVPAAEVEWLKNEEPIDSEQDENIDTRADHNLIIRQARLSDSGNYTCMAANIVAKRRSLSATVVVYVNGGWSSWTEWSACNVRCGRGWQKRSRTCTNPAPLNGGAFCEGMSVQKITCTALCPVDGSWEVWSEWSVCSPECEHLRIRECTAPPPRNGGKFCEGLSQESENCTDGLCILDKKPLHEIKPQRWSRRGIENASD

On to B1, for which the binding result in [1] is listed as “binds”.
For B2, the binding result in [2] was “binds”. In data set [3], the Kd came out at 94 nM.
One may read the stoichiometry N as the number of molecules, sites or subunits per partner or assembly. Regarding B3, in [4], the “stoichiometry N” value amounted to 1. Also, the binding result in [5], in data set [6] and in data set [7] was “binds” throughout. Besides, the Kd in data set [8] worked out at 460 nM.
With B4, in data set [9], the binding result was “binds”. Moreover, the “stoichiometry N” value in [10] was 1 and 2.
With B5, in [11], the binding result is listed as “binds”.
In the case of B6, in [12], the binding result is “binds”.
